These results are taken from publication PMC5906480, “Tau Antibody Structure Reveals a Molecular Switch Defining a Pathological Conformation of the Tau Protein” (Scientific Reports, 2018).

“Also recorded” adds a separate entry of the source.

As a reminder, the Kd is a measure of binding affinity in units of concentration.

Test [1] relates to FITC-conjugated tau peptide pS396. Nature of the test: Fluorescence polarization direct binding, pS396 peptide. As to the method:
FITC-labeled peptides used in fluorescence polarization experiments were synthesized by Biomatik (Cambridge, ON, Canada). Fab C5.2 affinity was determined using a fluorescence polarization-based direct binding assay with fluorescein isothiocyanate (FITC)-conjugated peptides (Table 1). The FITC-peptide concentration was kept constant at 300 nM while Fab C5.2 was serially diluted from 675 nM to 0.08 nM. Data was collected at 25 °C using excitation and emission wavelengths of 485 nm and 535 nm, respectively. Each experiment was done in a single 96-well plate and calculated in triplicate (buffer: 50 mM Tris, 100 mM NaCl, 0.1% pluronic F-127). The experiments were performed with a DTX 880 Multimode Detector (Beckman Coulter, Jersey City, NJ). Fluorescence data was reduced using multimode detection software and KD values were calculated in GraphPad Prism 7.0 using a nonlinear regression model.
To accurately measure the C5.2 binding affinity, we performed fluorescence polarization experiments to determine dissociation constants (KD), using the Fab C5.2 and four differentially phosphorylated FITC-conjugated peptides (Table 1). The peptide concentration was kept constant while that of Fab C5.2 was serially diluted from 675 nM to 0.08 nM (Fig. 1d). […] In comparison with a […] IgG molecule, each Fab fragment contains a single binding site so the KD was calculated using a nonlinear model.
A general note: Polarisation of emitted light reports the rotation of a fluorescent probe.

A further test deals with pS404 peptide. Nature of the test: ELISA, pS404 peptide. Format: binding. The conditions noted are these: plate coated with peptide 2 μg/mL; C5.2 IgG 8 μg/mL–0.05 ng/mL, 1 h room temperature; 405 nm. As to the method:
Immulon 4 HBX (extra high-binding) 96-well microtiter plates (Thermo Scientific) were coated with the same peptide used for crystallization diluted to 2 μg/mL in phosphate-buffered saline (PBS) and left overnight at 4 °C (Table 1). Plates were then washed three times in PBS-T (PBS containing 0.05% Tween-20) and blocked in 5% non-fat milk and 3% bovine serum albumin in PBS for 2 hours at room temperature. Plates were subsequently washed 3 times in PBS-T before C5.2 was serially diluted (8 μg/mL–0.05 ng/mL) in PBS and incubated for 1 hour at room temperature. Then, alkaline phosphatase-conjugated goat anti-mouse IgG (Southern Biotech) was diluted 1:2000 in PBS and incubated for 30 minutes at room temperature. Finally, bound IgG was analyzed by addition of p-nitrophenyl phosphate substrate (Thermo Scientific) and measurement at 405 nm on a VersaMax Microplate Reader.
In order to evaluate the ability of C5.2 to exclusively target the phosphorylated epitope, we performed an enzyme-linked immunosorbent assay (ELISA). The peptides used in the assay are the same peptides used for crystallization and diluted to a concentration of 2 μg/mL (Table 1). Binding curves were generated from ELISA data by maintaining plate-bound peptide concentrations and serially diluting C5.2 IgG (Fig. 1c).

For test [2], the system named is tau in Alzheimer's disease brain fractions. Nature of the test: Western and dot blot, Alzheimer's disease brain. It counts as binding, human. The method, then:
Mice were euthanized by cervical dislocation. Brains were quickly removed, weighed and divided sagittally down the midline to yield two hemispheres. One hemisphere was parted from the cerebellum and hindbrain, the forebrain containing cerebral cortex and hippocampus was snap-frozen on dry ice and stored at −80 °C until use for biochemical analysis. Frontal cortices from 4 AD donors (2 males and 2 females) and 4 non-demented healthy controls (HC, 2 males and 2 females) were obtained from Cambridge Bioscience (Cambridge, UK). The brain tissue samples were fresh-frozen and stored at −80 °C until used for biochemical analysis. All donors were of Caucasian race. Age of AD donors: 76–91 years. Age of the HC donors: 57–80 years. Post-mortem delays: 3–8 hours.
Brain tissue extraction was performed as described previously. Tissues were homogenized in 10 volumes of Tris-buffered saline containing protease and phosphatase inhibitors as follows: 50 mM Tris/HCl (pH 7.4); 274 mM NaCl; 5 mM KCl; 1% protease inhibitor mixture (Roche); 1% phosphatase inhibitor cocktail I & II (Sigma); and 1 mM phenylmethylsulfonyl fluoride (PMSF; Sigma). The homogenates were centrifuged at 27,000 × g for 20 min at 4 °C to obtain supernatant (S1) and pellet fractions. Pellets were re-homogenized in 5 volumes of high salt/sucrose buffer (0.8 M NaCl, 10% sucrose, 10 mM Tris/HCl, [pH 7.4], 1 mM EGTA, 1 mM PMSF) and centrifuged as above. The supernatants were collected and incubated with sarkosyl (1% final concentration; Sigma) for one hour at 37 °C, followed by centrifugation at 150,000 × g for one hour at 4 °C to obtain sarkosyl-insoluble pellets, referred to as P3. The P3 pellet was re-suspended in TE buffer (10 mM Tris/HCl [pH 8.0], 1 mM EDTA) to a volume equivalent to half of the original volume used for the brain homogenates. S1 and P3 fractions isolated from the individual 4 AD and 4 HC brains were pooled and used as AD pool and HC pool for western and dot blot analysis.
Samples were boiled in 1 × LDS loading buffer and 100 mM DTT. […] Tau and pTau levels were assessed in the samples using 1 μg/mL C5.2 overnight at 4 °C. A secondary fluorophore conjugated IgG antibody was used (IRDye 680 Goat anti-mouse, LICOR biosciences) and the signal was quantified using Odyssey CLx and Image studio software (LI-COR biosciences).
1 μl sample of S1 and P3 isolated from 24 weeks old rTg4510 and non-transgenic littermate (non-tg) mice or from four pooled Alzheimer’s disease (AD) and healthy control (HC) brains was spotted on nitrocellulose membranes. […] Bound antibodies were detected using an enhanced chemiluminescence system (ECL PLUS kit; Perkin Elmer).

B1: C5.2: novel mouse monoclonal antibody that targets the pS396 tau epitope region (antibody, V domains shown)
VH: QVQLQQSDAELVKPGASVKISCKASGYTFTDRTIHWVKQRPEQGLEWIGYIYPGDDSTKYNDMFKAKATLTADKSSNTAYMQLNSLTSDDSAVYFCARRGTMDYWGQGTSVTVSS
VL: DVQMIQSPSSLSASLGDIVTMTCQASQDTSINLNWFQQKPGKAPKLLIYGASNLEDGVPSRFSGSRYGTDFTLTISSLEDEDMATYFCLQHTYLPFTFGSGTKLEIK
Take B1: the Phosphorylation state-specificity entry in test [1] (Discussion, ELISA and fluorescence polarization) was “phosphorylation state-specific with nanomolar affinity”. For the same molecule, the Phospho-specificity entry in test [1] (both experiments (ELISA and fluorescence polarization)) is reported as “phospho-specificity for pS396”. The same molecule yielded a Kd in test [1] (restated in Discussion, fluorescence polarization, Fab C5.2) of 14.9 nM. For the same molecule, the “Recognition of peptide (ELISA)” value with pS404 peptide is “lack of recognition; also recorded: does not bind”. For the same molecule, the “Binding to insoluble tau fraction (P3)” value in test [2] (C5.2 1 µg/mL overnight 4 °C, sarkosyl-insoluble P3, pool of 4 AD donors) is on record as “binds predominantly to an insoluble tau fraction (P3)”. Further, the “Reactivity to soluble tau fraction (S1)” value in test [2] (C5.2 1 µg/mL overnight 4 °C, soluble S1, pool of 4 AD donors) was “also has reactivity to a soluble tau fraction (S1)”. In test [2] (overall statement from blots and immunohistochemistry (Fig. 1), AD and rTg4510 vs controls), the “Specificity for pathological tau protein” value is reported as “specific for pathological tau protein”. The “Bands recognized in S1 and P3” value in test [2] (western blot, C5.2 1 µg/mL, pool of 4 AD donors) is listed as “recognizes similar bands in both fractions”.
